# Measurements taken from paper PMC2756588.
# T1: Sla1-3, P32790
# T1 sequence (P32790 344-424, looked up): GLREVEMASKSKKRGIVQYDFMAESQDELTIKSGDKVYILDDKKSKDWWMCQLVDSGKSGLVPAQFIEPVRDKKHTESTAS
# T2: Boi1, P38041
# T2 sequence (P38041 1-86, looked up): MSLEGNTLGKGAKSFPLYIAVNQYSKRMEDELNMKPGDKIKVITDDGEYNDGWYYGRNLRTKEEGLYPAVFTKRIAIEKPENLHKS
# T3: Sla1-2, P32790
# T3 sequence (P32790 60-140, looked up): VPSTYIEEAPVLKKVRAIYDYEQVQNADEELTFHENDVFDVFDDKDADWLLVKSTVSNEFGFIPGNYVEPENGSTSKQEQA
# T4: Cdc25, P04821
# T4 sequence (P04821 50-136, looked up): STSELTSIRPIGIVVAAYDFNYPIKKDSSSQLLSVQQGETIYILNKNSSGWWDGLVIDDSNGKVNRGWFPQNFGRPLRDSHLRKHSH
# T5: Fus1, P11710
# T5 sequence (P11710 432-512, looked up): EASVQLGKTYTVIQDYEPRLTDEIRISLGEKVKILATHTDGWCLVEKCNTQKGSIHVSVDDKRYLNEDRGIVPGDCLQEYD
# T6: Myo5, Q04439
# T6 sequence (Q04439 1072-1160, looked up): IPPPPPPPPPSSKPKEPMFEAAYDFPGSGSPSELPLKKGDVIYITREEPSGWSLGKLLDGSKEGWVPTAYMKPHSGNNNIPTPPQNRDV
# T7: Bud14, P27637
# T7 sequence (P27637 247-328, looked up): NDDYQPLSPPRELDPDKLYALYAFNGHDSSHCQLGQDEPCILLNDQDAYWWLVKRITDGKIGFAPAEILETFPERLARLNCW
# T8: Lsb4, P32793
# T8 sequence (P32793 402-468, looked up): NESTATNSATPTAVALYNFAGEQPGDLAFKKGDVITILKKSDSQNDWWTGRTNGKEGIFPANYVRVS
# T9: Bzz1-1, P38822
# T9 sequence (P38822 478-572, looked up): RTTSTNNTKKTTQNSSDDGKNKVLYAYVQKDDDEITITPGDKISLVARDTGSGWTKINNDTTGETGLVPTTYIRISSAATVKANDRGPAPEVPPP
# T10: Lsb1, P53281
# T10 sequence (P53281 45-122, looked up): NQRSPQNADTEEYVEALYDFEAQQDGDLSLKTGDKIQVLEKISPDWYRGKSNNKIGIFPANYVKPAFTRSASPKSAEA
# T11: Abp1, P15891
# T11 sequence (P15891 535-592, looked up): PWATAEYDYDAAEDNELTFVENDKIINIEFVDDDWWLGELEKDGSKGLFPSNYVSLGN
# T12: Bbc1, P47068
# T12 sequence (P47068 1-78, looked up): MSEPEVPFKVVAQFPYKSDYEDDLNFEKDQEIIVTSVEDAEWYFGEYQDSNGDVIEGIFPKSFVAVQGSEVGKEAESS
# T13: Hof1, Q05080
# T13 sequence (Q05080 590-669, looked up): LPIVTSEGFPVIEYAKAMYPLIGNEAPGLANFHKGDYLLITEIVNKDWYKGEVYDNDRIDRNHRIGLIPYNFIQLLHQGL
# T14: Cyk3, Q07533
# T14 sequence (Q07533 1-83, looked up): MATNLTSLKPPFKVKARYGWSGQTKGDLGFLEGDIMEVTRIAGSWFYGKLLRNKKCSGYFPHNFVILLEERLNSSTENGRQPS
# T15: Nbp2, Q12163
# T15 sequence (Q12163 103-180, looked up): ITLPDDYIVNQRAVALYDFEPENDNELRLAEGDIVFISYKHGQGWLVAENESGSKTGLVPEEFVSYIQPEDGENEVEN
# T16: Boi2, P39969
# T16 sequence (P39969 32-116, looked up): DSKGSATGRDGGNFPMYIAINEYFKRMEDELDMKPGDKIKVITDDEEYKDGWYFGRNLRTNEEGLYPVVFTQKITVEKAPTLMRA
# T17: Hse1, P38753
# T17 sequence (P38753 208-285, looked up): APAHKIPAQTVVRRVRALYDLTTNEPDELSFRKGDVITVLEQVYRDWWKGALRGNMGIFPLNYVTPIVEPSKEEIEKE
# T18: Pin3, Q06449
# T18 sequence (Q06449 53-122, looked up): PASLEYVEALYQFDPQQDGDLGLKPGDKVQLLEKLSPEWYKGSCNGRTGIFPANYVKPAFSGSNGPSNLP
# T19: Bzz1-2, P38822
# T19 sequence (P38822 568-633, looked up): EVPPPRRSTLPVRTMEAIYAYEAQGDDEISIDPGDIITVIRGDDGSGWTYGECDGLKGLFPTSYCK
# T20: Lsb3, P43603
# T20 sequence (P43603 385-451, looked up): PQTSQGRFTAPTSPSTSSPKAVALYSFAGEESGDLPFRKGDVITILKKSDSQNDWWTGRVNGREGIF
# T21: Pex13, P80667
# T21 sequence (P80667 295-386, looked up): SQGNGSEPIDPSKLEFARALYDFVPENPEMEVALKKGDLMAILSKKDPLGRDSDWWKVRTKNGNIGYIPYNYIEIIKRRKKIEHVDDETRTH
# Molecular target: T1, Sla1-3, P32790
# Test: SPOT array
# Settings: median of control spots 5475
row,SPOT intensity,Binder
1,2040,FYHRPAPKPPVTKKV
2,11,NTMKKRPAPPSLPSL
3,88,KMSRSPPRPPSLKII

# Molecular target: T2, Boi1, P38041
# Test: SPOT array
# Settings: median of control spots 1162
row,SPOT intensity,Binder
1,0,FYHRPAPKPPVTKKV
2,7,NTMKKRPAPPSLPSL
3,0,KMSRSPPRPPSLKII

# Molecular target: T3, Sla1-2, P32790
# Test: SPOT array
# Settings: median of control spots 712
row,SPOT intensity,Binder
1,0,FYHRPAPKPPVTKKV
2,1,NTMKKRPAPPSLPSL
3,8,KMSRSPPRPPSLKII

# Molecular target: Sho1, P40073
# Test: SPOT array
# Settings: median of control spots 1148
# Sho1, P40073, sequence (P40073 287-367): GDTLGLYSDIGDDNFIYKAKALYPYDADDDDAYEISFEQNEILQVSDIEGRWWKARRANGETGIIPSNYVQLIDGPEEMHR
row,SPOT intensity,Binder
1,8,FYHRPAPKPPVTKKV
2,95,NTMKKRPAPPSLPSL
3,55,KMSRSPPRPPSLKII

# Molecular target: GST
# Test: SPOT array
# Settings: median of control spots 978
row,SPOT intensity,Binder
1,0,FYHRPAPKPPVTKKV
2,0,NTMKKRPAPPSLPSL
3,1,KMSRSPPRPPSLKII

# Molecular target: T4, Cdc25, P04821
# Test: SPOT array
# Settings: median of control spots 969
row,SPOT intensity,Binder
1,0,FYHRPAPKPPVTKKV
2,58,NTMKKRPAPPSLPSL
3,9,KMSRSPPRPPSLKII

# Molecular target: T5, Fus1, P11710
# Test: SPOT array
# Settings: median of control spots 1200
row,SPOT intensity,Binder
1,0,FYHRPAPKPPVTKKV
2,0,NTMKKRPAPPSLPSL
3,0,KMSRSPPRPPSLKII

# Molecular target: T6, Myo5, Q04439
# Test: SPOT array
# Settings: median of control spots 471
row,SPOT intensity,Binder
1,12,FYHRPAPKPPVTKKV
2,115,NTMKKRPAPPSLPSL
3,64,KMSRSPPRPPSLKII

# Molecular target: T7, Bud14, P27637
# Test: SPOT array
# Settings: median of control spots 956
row,SPOT intensity,Binder
1,0,FYHRPAPKPPVTKKV
2,21,NTMKKRPAPPSLPSL
3,5,KMSRSPPRPPSLKII

# Molecular target: Myo3, P36006
# Test: SPOT array
# Settings: median of control spots 468
row,SPOT intensity,Binder
1,37,FYHRPAPKPPVTKKV
2,99,NTMKKRPAPPSLPSL
3,81,KMSRSPPRPPSLKII

# Molecular target: T8, Lsb4, P32793
# Test: SPOT array
# Settings: median of control spots 397
row,SPOT intensity,Binder
1,3,FYHRPAPKPPVTKKV
2,63,NTMKKRPAPPSLPSL
3,88,KMSRSPPRPPSLKII

# Molecular target: T9, Bzz1-1, P38822
# Test: SPOT array
# Settings: median of control spots 4446
row,SPOT intensity,Binder
1,16,FYHRPAPKPPVTKKV
2,60,NTMKKRPAPPSLPSL
3,2,KMSRSPPRPPSLKII

# Molecular target: Bem1-2, P29366
# Test: SPOT array
# Settings: median of control spots 4347
# Bem1-2, P29366, sequence (P29366 139-227): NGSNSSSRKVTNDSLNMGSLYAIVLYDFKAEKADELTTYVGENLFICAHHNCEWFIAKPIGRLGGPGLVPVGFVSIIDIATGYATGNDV
row,SPOT intensity,Binder
1,4210,FYHRPAPKPPVTKKV
2,56,NTMKKRPAPPSLPSL
3,567,KMSRSPPRPPSLKII

# Molecular target: T10, Lsb1, P53281
# Test: SPOT array
# Settings: median of control spots 388
row,SPOT intensity,Binder
1,63,FYHRPAPKPPVTKKV
2,52,NTMKKRPAPPSLPSL
3,140,KMSRSPPRPPSLKII

# Molecular target: Rvs167, P39743
# Test: SPOT array
# Settings: median of control spots 2707
# Rvs167, P39743, sequence (P39743 419-482): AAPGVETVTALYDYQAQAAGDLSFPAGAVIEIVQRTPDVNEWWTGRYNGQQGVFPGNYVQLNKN
row,SPOT intensity,Binder
1,0,FYHRPAPKPPVTKKV
2,9,NTMKKRPAPPSLPSL
3,67,KMSRSPPRPPSLKII

# Molecular target: T11, Abp1, P15891
# Test: SPOT array
# Settings: median of control spots 935
row,SPOT intensity,Binder
1,114,FYHRPAPKPPVTKKV
2,205,NTMKKRPAPPSLPSL
3,326,KMSRSPPRPPSLKII

# Molecular target: T12, Bbc1, P47068
# Test: SPOT array
# Settings: median of control spots 796
row,SPOT intensity,Binder
1,45,FYHRPAPKPPVTKKV
2,15,NTMKKRPAPPSLPSL
3,98,KMSRSPPRPPSLKII

# Molecular target: T13, Hof1, Q05080
# Test: SPOT array
# Settings: median of control spots 4086
row,SPOT intensity,Binder
1,0,FYHRPAPKPPVTKKV
2,489,NTMKKRPAPPSLPSL
3,0,KMSRSPPRPPSLKII

# Molecular target: T14, Cyk3, Q07533
# Test: SPOT array
# Settings: median of control spots 1451
row,SPOT intensity,Binder
1,0,FYHRPAPKPPVTKKV
2,1,NTMKKRPAPPSLPSL
3,0,KMSRSPPRPPSLKII

# Molecular target: T15, Nbp2, Q12163
# Test: SPOT array
# Settings: median of control spots 357
row,SPOT intensity,Binder
1,314,FYHRPAPKPPVTKKV
2,120,NTMKKRPAPPSLPSL
3,513,KMSRSPPRPPSLKII

# Molecular target: T16, Boi2, P39969
# Test: SPOT array
# Settings: median of control spots 1161
row,SPOT intensity,Binder
1,0,FYHRPAPKPPVTKKV
2,2,NTMKKRPAPPSLPSL
3,0,KMSRSPPRPPSLKII

# Molecular target: Bem1-1, P29366
# Test: SPOT array
# Settings: median of control spots 4282
# Bem1-1, P29366, sequence (P29366 55-141): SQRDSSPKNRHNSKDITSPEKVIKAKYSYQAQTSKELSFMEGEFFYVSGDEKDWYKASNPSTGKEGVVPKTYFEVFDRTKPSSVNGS
row,SPOT intensity,Binder
1,0,FYHRPAPKPPVTKKV
2,0,NTMKKRPAPPSLPSL
3,0,KMSRSPPRPPSLKII

# Molecular target: T17, Hse1, P38753
# Test: SPOT array
# Settings: median of control spots 1727
row,SPOT intensity,Binder
1,78,FYHRPAPKPPVTKKV
2,53,NTMKKRPAPPSLPSL
3,14,KMSRSPPRPPSLKII

# Molecular target: T18, Pin3, Q06449
# Test: SPOT array
# Settings: median of control spots 2171
row,SPOT intensity,Binder
1,19,FYHRPAPKPPVTKKV
2,57,NTMKKRPAPPSLPSL
3,69,KMSRSPPRPPSLKII

# Molecular target: T19, Bzz1-2, P38822
# Test: SPOT array
# Settings: median of control spots 4538
row,SPOT intensity,Binder
1,186,FYHRPAPKPPVTKKV
2,1440,NTMKKRPAPPSLPSL
3,350,KMSRSPPRPPSLKII

# Molecular target: T20, Lsb3, P43603
# Test: SPOT array
# Settings: median of control spots 406
row,SPOT intensity,Binder
1,5,FYHRPAPKPPVTKKV
2,12,NTMKKRPAPPSLPSL
3,54,KMSRSPPRPPSLKII

# Molecular target: T21, Pex13, P80667
# Test: SPOT array
# Settings: median of control spots 1341
row,SPOT intensity,Binder
1,143,FYHRPAPKPPVTKKV
2,80,NTMKKRPAPPSLPSL
3,124,KMSRSPPRPPSLKII
